Laboratory results reported in patent US20120082663A1 (Genentech, published 2012).

What was measured:
[1] = biological target: T1, cMet-Ig protein (biotinylated) (UniProt P08581 25-929, biotinylated with NHS-X-biotin); test: electrochemiluminescent competition assay: antibody (3333-0.21 nM) against HGF-Ruthenium Tag binding to cMet-Ig-biotin
T1 construct: Purified cMet-Ig produced at Genentech; also called cMet-Ig-biotin; not shown: Ig part not described
Protocol: (§1) Purified cMet-Ig protein produced at Genentech (South San Francisco, Calif.) was biotinylated by incubating with 20-fold molar excess NHS-X-Biotin in 0.1 M NaHCO3, pH 8.5 using biotin-X-NHS (Research Organics, Cleveland, Ohio). Purified human 2-chain HGF produced at Genentech was labeled with BV-TAG (cat #110034) via NHS-ester chemistry according to manufacturer's directions (BioVeris International, Gaithersburg, Md.). cMet-Ig-biotin (500 ng/mL), HGF-Ruthenium Tag (250 ng/mL), and titrations of OA5D5 antibody ranging from 3333-0.21 nM of antibody were incubated together in a volume of 100 ul of assay diluent: PBS ±0.5% BSA/0.5% Tween 20/0.033% Proclin (Supelco Inc. Bellefonte Pa.). The mixtures were incubated in sealed polypropylene round bottom 96 well plates (Corning) for 2-4 hours at room temperature with shaking Streptavidin magnetic beads (Dynabeads, BioVeris) were added. Following a final 45 min incubation with vigorous shaking, the plates were read using a BioVeris M-Series instrument (BioVeris International, Gaithersburg, Md.).

[2] = biological target: T1, cMet-Ig protein (biotinylated); test: electrochemiluminescent competition assay in solution: inhibition of 2.5 nM HGF-Tag (ruthenium-labelled HGF) binding to 5 nM cMet-biotin; antibody titrated
Protocol: as §1

[3] = biological target: human c-Met on cells (BaF3-hMet transfected with full-length human c-Met cDNA; A549 and H358 cells) (human, UniProt P08581 25-1390); test: cell-based or functional assay
canine HGF receptor = canine HGF receptor (canine, UniProt Q75ZY9 25-935, limits assumed); test: cross-species binding test, method not described (data not shown)
[4] = biological target: murine (mouse) HGF receptor (murine (mouse), UniProt P16056 25-931, limits assumed); test: as above
[5] = biological target: T2, human HGF receptor Fc fusion (HGFR-Fc) (human, UniProt P08581 25-929, limits assumed); test: SPR (BIAcore-2000), HGFR-Fc immobilised on a CM5 chip, Fab injected at 4 to 500 nM, 1:1 Langmuir fit
T2 construct: Generated and used as an Fc fusion; also called HFGR-Fc; b-HGFR-Fc (biotinylated)
Protocol: (§2) Affinity determinations were performed by surface plasmon resonance using a BIAcore™-2000. HGFR-Fc was immobilized (˜1000 response units (RU)) on a CM5 chip and varied concentrations of Fab (4 to 500 nM) in PBST were injected. After each injection the chip was regenerated using 100 mM HCl. Binding response was corrected by subtracting the RU from a blank flow cell. A 1:1 Languir model of simultaneous fitting of kₒₙ and koff was used for kinetics analysis.

[6] = biological target: T2, human HGF receptor Fc fusion (HGFR-Fc); test: SPR (BIAcore-2000), Fab injected over immobilized HGFR-Fc; humanized clone (5D5 graft plus R94S) as Fab
Protocol: as §2
A library was generated in which each of the HVR regions of the 5D5 graft was soft randomized. This library was panned against immobilized HGFR-Fc for 4 rounds of selection. […] Analysis of this clone by phage ELISA indicated it had similar affinity to that of the monovalent affinity of murine 5D5. […] Thus this unexpected substitution restores full binding affinity to the 5D5 graft, and the 5D5 graft plus R94S (hu5D5.v1) represents a fully humanized antibody. […] MacCallum et al. (MacCallum et al. J. Mol. Biol. 262: 732-745 (1996)) have analyzed antibody and antigen complex crystal structures and found positions 93 and 94 of the heavy chain are part of the contact region thus it seems reasonable to include these positions in the definition of hypervariable region of H3 (HVR-H3) when humanizing antibodies.

[7] = biological target: T2, human HGF receptor Fc fusion (HGFR-Fc); test: SPR (Biacore), Fab over immobilized HGFR-Fc; reference hu5D5.v1
Protocol: as §2
Affinity maturation of hu5D5.v1 —To improve the affinity of hu5D5.v1, six phage display libraries were generated in the background of hu5D5.v1, each targeting a single HVR for soft randomization. To avoid re-selecting hu5D5.v1 from a potential high background of wild-type template, stop codons were introduced into the HVR to be mutated prior to generating each library. A solution sorting method was used to enhance the efficiency of the affinity-based phage selection process. By manipulating the biotinylated target concentration, reducing the phage capture time to lower backgrounds and the addition of unbiotinylated target to eliminate clones with faster off rates, high affinity clones can be proficiently selected. Lee et al., supra. […] After 4 rounds of selection, clones from each of the […] library pools were analyzed. […] Selected clones were screened by phage ELISA and then expressed as Fab protein and their affinity determined using Biacore. […]

[8] = biological target: T2, human HGF receptor Fc fusion (HGFR-Fc); test: SPR (BIAcore-2000), HGFR-Fc immobilised on a CM5 chip
[9] = biological target: T2, human HGF receptor Fc fusion (HGFR-Fc); test: SPR (BIAcore-2000), HGFR-Fc immobilised on a CM5 chip, 1:1 Langmuir fit
Protocol: as §2

[10] = biological target: T2, human HGF receptor Fc fusion (HGFR-Fc); test: SPR (Biacore), monovalent affinity, HGFR-Fc; murine 5D5, monovalent affinity

B1: OA-5D5.v2 one-armed anti-Met antibody (antibody)
light: DIQMTQSPSSLSASVGDRVTITCKSSQSLLYTSSQKNYLAWYQQKPGKAPKLLIYWASTRESGVPSRFSGSGSGTDFTLTISSLQPEDFATYYCQQYYAYPWTFGQGTKVEIKRTVAAPSVFIFPPSDEQLKSGTASVVCLLNNFYPREAKVQWKVDNALQSGNSQESVTEQDSKDSTYSLSSTLTLSKADYEKHKVYACEVTHQGLSSPVTKSFNRGEC
heavy: not shown
chain: not shown
notes: also called rhuOA5D5v2; one-armed 5D5.v2
Q: Which results are given for B1?
A: IC50 relative to comparator antibody (chimeric one-armed antibody, OA-5D5.v1) [1]: < 0.5 fold of the comparator's IC50; IC50 [2]: 1 nM; inhibition of HGF receptor activation (KIRA, HGF-dependent Met phosphorylation in A549 cells); IC50 relative to comparator antibodies [3]: < 0.5 fold of the comparator's IC50; inhibition of cell proliferation in the presence of HGF (BaF3-hMet cells); IC50 relative to comparator antibodies [3]: < 0.5 fold of the comparator's IC50; binding result (canine HGF receptor): no binding; binding result [4]: no binding

B2: hu5D5.v1 (5D5 graft plus R94S), expressed as Fab (Fab, V domains shown)
VH: EVQLVESGGGLVQPGGSLRLSCAASGYTFTSYWLHWVRQAPGKGLEWVGMIDPSNSDTRFNPNFKDRFTISADTSKNTAYLQMNSLRAEDTAVYYCASYGSYVSPLDYWGQGTLVTVSS
VL: DIQMTQSPSSLSASVGDRVTITCKSSQSLLYTSSQKNYLAWYQQKPGKAPKLLIYWASTRESGVPSRFSGSGSGTDFTLTISSLQPEDFATYYCQQYYAYPWTFGQGTKVEIK
notes: Fab made in E. coli from the phage display vector (human CL and CH1); also called this clone
Q: What does the source list for B2?
A: koff [5]: 0.000507 s⁻¹; kon [5]: 51600 M⁻¹ s⁻¹; Kd [6]: 9.8 nM

B3: hu5D5.v2 (clone 78), expressed as Fab (Fab, V domains shown)
VH: EVQLVESGGGLVQPGGSLRLSCAASGYTFTSYWLHWVRQAPGKGLEWVGMIDPSNSDTRFNPNFKDRFTISADTSKNTAYLQMNSLRAEDTAVYYCATYRSYVTPLDYWGQGTLVTVSS
VL: DIQMTQSPSSLSASVGDRVTITCKSSQSLLYTSSQKNYLAWYQQKPGKAPKLLIYWASTRESGVPSRFSGSGSGTDFTLTISSLQPEDFATYYCQQYYAYPWTFGQGTKVEIKR
notes: Differs from hu5D5.v1 by 94T, 96R and 100T (Kabat, VH); Fab made in E. coli from the phage display vector (human CL and CH1)
Q: For B3, which Kd [5] is on record?
A: The Kd was 0.625 nM.

Q: What about the koff [5] of the same binder?
A: Its koff is 0.000147 s⁻¹.

Q: What about the kon [5] of the same binder?
A: The kon was 236000 M⁻¹ s⁻¹.

Q: And the “fold affinity improvement (against hu5D5.v1)” value [7]?
A: Its value is 13 fold.

B4: OA-5D5.v1 one-armed anti-Met antibody (antibody, V domains shown)
VH: EVQLVESGGGLVQPGGSLRLSCAASGYTFTSYWLHWVRQAPGKGLEWVGMIDPSNSDTRFNPNFKDRFTISADTSKNTAYLQMNSLRAEDTAVYYCASYGSYVSPLDYWGQGTLVTVSS
VL: DIQMTQSPSSLSASVGDRVTITCKSSQSLLYTSSQKNYLAWYQQKPGKAPKLLIYWASTRESGVPSRFSGSGSGTDFTLTISSLQPEDFATYYCQQYYAYPWTFGQGTKVEIK
notes: One-armed antibody named only as another antibody of the invention (OA-5D5.v1); Its constant domains and Fc polypeptides are not described; also called rhuOA5D5v1
Q: Which IC50 [2] does the source give for B4 here?
A: The IC50 was 5.4 nM.

B5: 5D5 graft (direct HVR-graft of murine 5D5 into the human acceptor framework), displayed as an Fab on phage (Fab, V domains shown)
VH: EVQLVESGGGLVQPGGSLRLSCAASGYTFTSYWLHWVRQAPGKGLEWVGMIDPSNSDTRFNPNFKDRFTISADTSKNTAYLQMNSLRAEDTAVYYCARYGSYVSPLDYWGQGTLVTVSS
VL: DIQMTQSPSSLSASVGDRVTITCKSSQSLLYTSSQKNYLAWYQQKPGKAPKLLIYWASTRESGVPSRFSGSGSGTDFTLTISSLQPEDFATYYCQQYYAYPWTFGQGTKVEIK
notes: subgroup III VH with R71A, N73T, L78A; grafted L1 24-34, L2 50-56, L3 89-97, H1 26-35, H2 49-65, H3 95-102; R at 94); In the assay it was a monovalent Fab-g3 fusion on phage with human CL and CH1 of the vector; also called direct HVR-graft of 5D5
Q: Does B5 bind [8]?
A: Result: no binding (tested: 500 nM)

B6: murine 5D5 anti-c-met antibody, monovalent form (Fab, V domains shown)
VH: QVQLQQSGPELVRPGASVKMSCRASGYTFTSYWLHWVKQRPGQGLEWIGMIDPSNSDTRFNPNFKDKATLNVDRSSNTAYMLLSSLTSADSAVYYCATYGSYVSPLDYWGQGTSVTVSS
VL: DIMMSQSPSSLTVSVGEKVTVSCKSSQSLLYTSSQKNYLAWYQQKPGQSPKLLIYWASTRESGVPDRFTGSGSGTDFTLTITSVKADDLAVYYCQQYYAYPWTFGGGTKLEIKR
notes: also called mu5D5; hybridoma 5D5.11.6 (ATCC HB-11895)
Q: For B6, which koff [9] is on record?
A: The koff was 0.000743 s⁻¹.

Q: And the kon [9]?
A: The kon was 89800 M⁻¹ s⁻¹.

Q: And the Kd [10]?
A: The Kd was 8.3 nM.

B7: chimeric one-armed 5D5 antibody (Fab arm from the murine parent 5D5 antibody fused to a human Fc region) (antibody, V domains shown)
VH: QVQLQQSGPELVRPGASVKMSCRASGYTFTSYWLHWVKQRPGQGLEWIGMIDPSNSDTRFNPNFKDKATLNVDRSSNTAYMLLSSLTSADSAVYYCATYGSYVSPLDYWGQGTSVTVSS
VL: DIMMSQSPSSLTVSVGEKVTVSCKSSQSLLYTSSQKNYLAWYQQKPGQSPKLLIYWASTRESGVPDRFTGSGSGTDFTLTITSVKADDLAVYYCQQYYAYPWTFGGGTKLEIKR
notes: also called rchOA5D5; chimeric one-armed antibody
Q: For B7, which IC50 [2] is on record?
A: Its IC50 is 2.6 nM.
